This data set is described as follows: protein stability index of a GFP-peptide fusion (GPS, HEK-293T) (PSI 1-6); higher = more stable.
[1] abbreviates: treatment: DMSO, c terminus: native.
Where [2] appears, read: treatment: MLN4924 1 uM, 8 h, c terminus: native.
The mark [3] stands for this setting: treatment: DMSO, c terminus: a fixed tail appended.
The mark [4] stands for this setting: treatment: MLN4924 1 uM, 8 h, c terminus: a fixed tail appended.

± gives the standard deviation.
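Further: 24-mer peptide tiles fused after GFP, lentivirally expressed, FACS-sorted into six equal bins by GFP/DsRed ratio, decoded by Illumina sequencing, PSI is the read-weighted mean bin number.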

In the case of WTNRLCHQEMGSKKTVTQEDRGW [SPAG8], the protein stability index runs as follows: under setting [1], 3.08 ± 0.64; under setting [2], 2.79 ± 0.41.

Consider EDEEEEEGGEGEKEGEGEVGGEAV [TRIM55], for which the protein stability index is 5.74 ± 0.24 under setting [3] and 5.7 ± 0.27 under setting [4].

Consider SSEVDELIHKADEVTLSEAGSTAG [PALM], for which the protein stability index is, setting by setting: under setting [3], 5.65 ± 0.15; under setting [4], 5.58 ± 0.16.

Sequence QAQIHGLPVPPTPGLLSLATTSAS [TFE3] came in with a protein stability index under setting [3] of 3.86 ± 0.11 and a protein stability index under setting [4] of 3.87 ± 0.18.

GPDGQEMDPPNPEEVKTPEEEMRS [GAGE1]: the protein stability index by setting is: under setting [3], 5.7 ± 0.3; under setting [4], 5.38 ± 0.42.

EQGKPVIPAAVLAGFTGSGPIQLW [ETS2]: the protein stability index by setting is: under setting [3], 2.55 ± 0.43; under setting [4], 2.54 ± 0.16.

Turning to ALKHYVESASSQSGCLRISIQKLS [NECAB1], the protein stability index runs as follows: under setting [3], 2.05 ± 0.12; under setting [4], 2.18 ± 0.28.

In turn, LKPESSQQPGQDALAVKAGHGYDS [ZBED1] gave a protein stability index under setting [3] of 5.12 ± 0.33 and a protein stability index under setting [4] of 5.22 ± 0.32.

In the case of VIKDKDDSVDAQNICHVWHMNVEA [RNF180], the protein stability index worked out at 3.98 ± 0.047 under setting [3] and 3.66 ± 0.17 under setting [4].

With SFQGCMAQLFMDHLFAGAEVILLV [OR4A15], the protein stability index was determined as 3.28 ± 1.2 under setting [3] and 3.18 ± 0.91 under setting [4].

For NSKPQDLTDAYGPPSNFLEIDIFN [SNX12], the protein stability index runs as follows: under setting [3], 3.63 ± 0.18; under setting [4], 3.83 ± 0.24.

Turning to GPTGVTMTSNPITWGQIKKTTQEA [CDK11A], the protein stability index was 4.55 ± 0.21 under setting [3] and 4.51 ± 0.4 under setting [4].

YTDYVATRWYRAPELLVGDTQYGS [CDKL4] had a protein stability index under setting [3] of 2.56 ± 0.7 and a protein stability index under setting [4] of 2.38 ± 0.34.

Take HELVWAKMKGFGFWPAKVMQKEDN [ZMYND11]: the protein stability index worked out at 3.06 ± 0.37 under setting [3] and 3.09 ± 0.47 under setting [4].

For SGTDAEETILNAFKMLDPDGKGKI [MYL5], the protein stability index is, setting by setting: under setting [3], 4.51 ± 0.18; under setting [4], 4.31 ± 0.17.

For the sequence CSVFPATDAPEQFISQVTVLKYFS [PLK2], the protein stability index runs as follows: under setting [3], 2.49 ± 0.55; under setting [4], 2.56 ± 0.5.

Regarding MTEEVIVIAKWDYTAQQDQELDIK [NCK2], the protein stability index runs as follows: under setting [3], 2.92 ± 0.29; under setting [4], 2.97 ± 0.33.

On to EVLLGTPYDLAIDMWSLGCILVEM [DYRK1B], for which the protein stability index was 2.79 ± 0.37 under setting [3] and 2.96 ± 0.51 under setting [4].

For the sequence AALCALGKDCFLELAPDFVGDILW [ETS1], the protein stability index was determined as 2.51 ± 0.41 under setting [3] and 2.95 ± 0.77 under setting [4].

Regarding NFCKHNGSKNVFSTFRTPAVLFTG [ATL3], the protein stability index runs as follows: under setting [3], 2.21 ± 0.32; under setting [4], 2.33 ± 0.13.

QHGQLGTNTRRGSRAPCKVQGLEG [NEK8] displayed a protein stability index under setting [3] of 4.18 ± 0.15 and a protein stability index under setting [4] of 4.19 ± 0.19.

Sequence TAVGAILAGGLCVGIYATNSAEAC [ACSBG2] yielded a protein stability index under setting [3] of 2.35 ± 0.12 and a protein stability index under setting [4] of 2.84 ± 0.75.

In the case of LLEPEVADGGGAPPQGGCGGGGCD [KCNA3], the protein stability index under setting [3] turned out to be 5.31 ± 0.22 and the protein stability index under setting [4] amounted to 5.35 ± 0.11.

VQEQQKQLQDQDQKLLEQTQIIGE [FBXO28] returned a protein stability index under setting [3] of 5.43 ± 0.28 and a protein stability index under setting [4] of 5.36 ± 0.09.

Consider HGDDLKNTKNEISELTRLIQRIRS [KRT71], for which the protein stability index is, setting by setting: under setting [3], 2.77 ± 0.18; under setting [4], 3.11 ± 0.3.

Turning to IYLLRRQIRTVIQYQTVRYDILPL [CTDNEP1], the protein stability index came to 2.94 ± 0.34 under setting [3] and 2.56 ± 0.51 under setting [4].

As for QAALQKQQEVVVAGSSLPTSSKVN [ACBD3], the protein stability index reads like this: under setting [3], 5.04 ± 0.18; under setting [4], 5.03 ± 0.063.

As for NPALQLILTRTDKTLNKKLGQNK [TOR1AIP2], the protein stability index was determined as 3.87 ± 0.16 under setting [1] and 3.89 ± 0.12 under setting [2].

As to LESRFQSKSGYLRYSCESRIRSYL [DFFB], the protein stability index under setting [3] was found to be 2.46 ± 0.12 and the protein stability index under setting [4] is 2.39 ± 0.24.

Consider KEVPVVHTETKTITYESSQVDPGT [EPB41L3], for which the protein stability index came out at 5.33 ± 0.42 under setting [3] and 5.2 ± 0.25 under setting [4].

The sequence TKADIGTPSNFQHIGHVGWDPNTG [WASL] returned a protein stability index under setting [3] of 3.81 ± 0.21 and a protein stability index under setting [4] of 3.85 ± 0.18.

As to LIGFCMFVLSLVKKHYRLQFYMFG [CDS2], the protein stability index runs as follows: under setting [3], 2.33 ± 0.61; under setting [4], 2.47 ± 0.85.

As for GANINAFDKKDRRALHWAAYMGHL [ANKRD44], the protein stability index reads like this: under setting [3], 2.3 ± 0.21; under setting [4], 2.36 ± 0.31.

PVLRPMDLMVEATPRRVFANAHTY [PPP2R2B]: the protein stability index is 2.68 ± 0.17 under setting [3] and 2.82 ± 0.075 under setting [4].

In turn, NKCSVYPLTFDKNENMAAKKKSVA [GNB5] came in with a protein stability index under setting [3] of 4.09 ± 0.16 and a protein stability index under setting [4] of 4.39 ± 0.48.

As to TRYSVAGLSPYSDYEFRVVAVNNI [PTPRD], the protein stability index reads like this: under setting [3], 2.51 ± 0.35; under setting [4], 2.61 ± 0.37.

As for PKRRWLFWNSPSSPSSSAASSSSP [RHOBTB2], the protein stability index by setting is: under setting [3], 3.57 ± 0.2; under setting [4], 3.75 ± 0.18.

Regarding ASSPYISSVQSYPGSASLAQSRLE [DLX1], the protein stability index was determined as 3.92 ± 0.18 under setting [3] and 4.13 ± 0.14 under setting [4].

On to VEKQADTLNVIELNVQKTVDYTGQ [STX11], for which the protein stability index reads like this: under setting [3], 4.6 ± 0.21; under setting [4], 4.58 ± 0.15.

Consider KIENGYPLHAPEAYFPYFKKHNVT [CDC14A], for which the protein stability index reads like this: under setting [3], 2.2 ± 0.19; under setting [4], 2.32 ± 0.18.

SFLRDHSYATEADIISTVEFNHTG [PPP2R2B] came in with a protein stability index under setting [3] of 3.65 ± 0.15 and a protein stability index under setting [4] of 3.58 ± 0.19.

RVYLATDDPSLLKEAKTKYPNYEF [FUT8] gave a protein stability index under setting [3] of 2.95 ± 0.36 and a protein stability index under setting [4] of 2.9 ± 0.28.

Take IQQALTMFPGVLLPLLESCSVRPD [TCF25]: the protein stability index worked out at 2.4 ± 0.5 under setting [3] and 3.18 ± 0.58 under setting [4].

In the case of FYSAEIICAIEYLHSKEIVYRDLK [PRKX], the protein stability index by setting is: under setting [3], 2.96 ± 0.76; under setting [4], 2.51 ± 0.45.

In the case of LFCAPGSWEWNELDHIMEIILGS [SERTAD3], the protein stability index is, setting by setting: under setting [1], 3.56 ± 0.17; under setting [2], 2.45 ± 0.4.

APGIGPPEPWPGGCTGDEAESRGH [MYCL]: the protein stability index was 4.97 ± 0.55 under setting [3] and 5.51 ± 0.23 under setting [4].

With VRNQQSLAVSNMGARSKGQCPEPP [PTPN9], the protein stability index under setting [3] was determined as 4.3 ± 0.11 and the protein stability index under setting [4] came out at 4.21 ± 0.39.

Regarding TRTTSFKGTSPSSKYVKLNVGGAL [KCTD10], the protein stability index by setting is: under setting [3], 3.01 ± 0.41; under setting [4], 2.87 ± 0.28.

As for QDSFEAAGNSTSGSRAGASSFSDP [KCNA3], the protein stability index is, setting by setting: under setting [3], 5.42 ± 0.31; under setting [4], 5.35 ± 0.16.

On to TVNIHRLHVKRSMGWKKACDELEL [ZMYND11], for which the protein stability index reads like this: under setting [3], 2.61 ± 0.32; under setting [4], 2.77 ± 0.36.

Take PTEQVNELVALIPHSDQRLRPQRT [TMEM106C]: the protein stability index is, setting by setting: under setting [3], 4.63 ± 0.12; under setting [4], 4.75 ± 0.1.

Regarding DKVGLITLSDWAAAVESVLHLGLP [PPEF2], the protein stability index was determined as 2.5 ± 0.25 under setting [3] and 2.31 ± 0.64 under setting [4].

As for LEQQNQVLETKWELLQQLDLNNCK [KRT71], the protein stability index by setting is: under setting [3], 4.21 ± 0.21; under setting [4], 4.4 ± 0.27.

(Values after the supplement of paper PMC10567573.)
